Assay results as given in US20190338026A1 (University of Texas, published 2019).
Positions count from the first letter of the chain named.

B1: LA-111 (antibody, V domains shown)
VH: EQSVEESGGGLVAPGGSLTLTCTVSGFSLSNYHMGWVRQAPGKGLEWIGYIYTHGTTFYASWAKGRFTISKTSTTVDLKMTRLTTGDTATYFCARGGYADYNILYNLWGPGTLVTISS
VL: ELVLTQTPASVEAAVGGTVTINCQASQSISSYLAWYQQKPGQPPKLLIYDASDLASGVPSRFKGSRSGTEFTFTISDLECADAATYYCQTYDSSTTAAFGGGTEVEIK
notes: Rabbit monoclonal IgG
B2: LA-82 (antibody, V domains shown)
VH: EQSLEESGGDLVKPGASLTLACTASGFSFSDGYYMCWVRQAPGKGLEWIGCIHSSSGSIYYASWAKGRFTISKTSSTMVTLQMSSLTAADTATYFCARDSESYGYNPCELWGPGTLVTISS
VL: ELVMTQTPASVSEAVGGTVTIKCQASQTISNYLAWYQQKPGQRPKLLIYAASSLASGVSSRFRGSRSGTEYTLTITDLECDDAATYYCQCTYYGTTYIGGAFGGGTEVEIK
notes: Rabbit monoclonal IgG; also called mAb LA-82
B3: LA-6 (antibody, V domains shown)
VH: EQSVEESGGDLVKPEGSLTLTCTASGFSFSSGYYMCWVRQAPGKGLEWIGCIHSSSGNIYYASWAKGRFTISKTSSTTVDLQLTSLTAADTATYFCARDSEVYGWNPNDLWGPGTLVTVSS
VL: ELDMTQTPASVSEPVGGTVTIKCQASQSISSYLAWYQQKPGQRPKLLIYGASNLASGVSSRFKGSRSGTQFTLTITDLECDDAATYYCQCSYYGNSYVGGAFGGGTEVVVK
notes: Rabbit monoclonal IgG; also called mAb LA-6
B4: LA-56 (antibody, V domains shown)
VH: SSSVEESGGRLVTPGTPLTLTCTVSGFSLSAYWVGWVRQAPGKGLEYIGFVDVDIYYASWARGRFTISKTSSTTVDLILTSPTMEDTATYFCVRMSYNAMDLWGPGTLVTISS
VL: ELDLTQTASSVSAAVGDTVTINCQSSESVYKDNFLSWYQQKPGQPPKLLIYRASTLASGVPSRFKGSGSGSQFTLTISDVVCDDAATYYCSGYRNSHDGLPFGGGTEVEIK
notes: Rabbit monoclonal IgG; also called mAb LA-56
B5: LA-245 (antibody, V domains shown)
VH: QSLQESRGRLVTPGTPLTLTCTASGFSLSSYHMGWVRQAPGKGLEWIGYIHTNRNTWYANWAKGRFTISKTSSTTVNLRMTSPTTEDTATYFCARGSYGDYNFLFDVWGPGTLVTVSS
VL: ELVMTQTPASVSEPVGGTVTINCQASEDISIYLAWYQQKPGQPPKLLIYDASTLESGVPSRFSGSGSRTQFTLTISDLECADAATYYCQQYSTTDTNNLFGGGTEVEIK
notes: Rabbit monoclonal IgG
B6: LA-61 (antibody, V domains shown)
VH: EQLMEESGGRLVTPGTPLTLTCTASGFDVNAYHMGWVRQAPGKGLEWIGYIYSGGTIFYANWAKGRFTLSRTSTTVDLKITSPTTEDTATYFCARGGYDNYNILYDLWGPGTLVTISS
VL: ELDMTQTPASVSEPVGGTVTIKCQASQSISVYLAWYQQKPGQPPKLLIYDASTLTSGVPSRFKGSGSGTEFTLTISDLECADAAAYYCQSYDGTPTAAFGGGTEVVVK
notes: Rabbit monoclonal IgG; also called mAb LA-61
B7: LA-29 (antibody, V domains shown)
VH: SSSVEESGGGLVQPEGSLTLTCTASGFSFSSRYYMCWVRQAPGKGLEWIACIYNGDGSRYYASWAKGRFTISKTSSTTVTLQMTSLTAADTATYFCVRDRHTAFVDYGDDNLWGPGTLVTVSS
VL: ELDLTQTPASVSEPVGGTVTIKCQASQSIYSNLAWYQQKPGQPPKLLIYRASTLASGVPSRFKGSGAGTEFTLTISDLECADAATYYCQCTYDGISYVPSSFGGGTEVVVK
notes: Rabbit monoclonal IgG; also called mAb LA-29
B8: LA-171 (antibody, V domains shown)
VH: EQSVEESGGRLVTPGGSLTLTCTVSGFSLSSYNMGWVRQAPGKGLEYIGWISLGGNTYYASWVNGRFTISKTSTTVELKISSPTTEDTATYFCARGAGSLYYGDYYFTLWGPGTLVTISS
VL: ELVLTQTPSSVSAAVGGTVTIKCQASQSIYSNLAWYQQKPGQPPKLLIYKASNLASGVPSRFKGSGSGTEYTLTISDLECADAATYYCQNYYGINDYGAAFGGGTEVVVK
notes: Rabbit monoclonal IgG
B9: LA-199 (antibody, V domains shown)
VH: EQSVEESGGRLVTPGTPLTLTCTASGFSLSSYAMIWVRQAPGEGLEWIGDIYAGGGATYYASWAKGRFTISKTSTTVDLKITSPTTEDTATYFCARAYGSGYDLWGPGTLVTVSS
VL: ELDLTQTPASVEVAVGGTVTIKCQASQSISSYLSWYQQKPGQPPKLLIYYASTMASGVPSRFSGSGSGTQFTLTISDLECADAATYYCQQGDSRSNVDNIFGGGTEVVVK
notes: Rabbit monoclonal IgG
B10: LA-60 (antibody, V domains shown)
VH: EQSLESGGGLVQPEGSLTLTCTASGFSFSNSYYMCWVRQAPGKGLEWIGCIYTGSSSGTYYASWAEGRFTISKTPSTTVTLQMTSLTAADTATYFCSRKLTNFNGAYLDLWGPGTLVTVSS
VL: ELVLTQTPASVEAAVGGTVTIKCQASQSIYSYLAWYQQKPGQPPKVLIYKASTLASGVPSRFKGSGSGTEFTLTISDLECADAATYYCQNNNGGSDNTFGGGTEVVVK
notes: Rabbit monoclonal IgG; also called mAb LA-60
B11: LA-145 (antibody, V domains shown)
VH: SSSVEESGGRLVTPGTPLTLTCTVSGFSLSSYVMGWVRQAPGKGLEWIGTISIRSNTYYASWAKGRFTISKTSTTVDLKITSPITEDTATYFCARGAGNVYYSDYYFSLWGPGTLVTISS
VL: ELVMTQPPASVSAAVGGTVTINCQASQNIYSNLAWYQQRPGQPPKLLIYKASTLASGVPSRFKGSGSGTDYTLTITDLECADAATYYCQTYYNMMDDGAAFGGGTEVEIK
notes: Rabbit monoclonal IgG
B12: LA-89 (antibody, V domains shown)
VH: QSVKESGGRLVTPGTPLTLTCTVSGFSLSSNAISWVRQAPGKGLEWIGYIYGDGRTFYASWAKGRFTISKTSTTVDLKMTSLTSEDTATYFCIKSLHLWGPGTLVTISS
VL: ELDMTQTASPVSAAVGGTVTINCQSSQSVYNKNQLFWYQQKPGQPPKLLIYDASTLASGVPSRYKGSGSGTQFTLTISGVQCDDAATYYCLGEYTGNIYTFGEGTEVVVK
notes: Rabbit monoclonal IgG; also called mAb LA-89
B13: LA-141 (antibody, V domains shown)
VH: QSLEESGGRLVKPDESLTLTCTVSGFSLSSNAMSWVRQAPGKGLEWIGYIYGDGRTFYANWAKGRITISRTSTTVDLKMTSLRTEDTATYFCVKSLILWGPGTLVTISS
VL: B12 VL with A8P, Q27H, K32A, F36Y, Y64F, T95S, T100V, V108E, V109I, K110N
notes: Rabbit monoclonal IgG
B14: LA-259-1 (antibody, V domains shown)
VH: QSVKESGGRLVTPGTPLTLTCTASGFSLYKYNIQWVRQAPGKGLEYIGASTYAGYTYYASWAKGRVTISRTSTTVDLKMTSPTTEDTATYFCARHIDGDYSGYALWGPGTLVTISS
VL: ELVLTQTPASVSAAVGGTVTIKCQASQSIGTWFAWYQQKPGQSPKLLIYGPSKLASGVPPRFKGSGSGTEFTLTISDLECADAATYYCQSTYFGVDYLGGTFGGGTEVVVK
notes: Rabbit monoclonal IgG
B15: LA-142-2 (antibody, V domains shown)
VH: B14 VH with Q1A, S2A, I114V
VL: ELVLTQTPASVSAAVGGTVTIKCQASQSIGTWFAWYQQKPGQSPKLLIYGASNLASGVSSRFKGIRSGTEYTLTISDLECADAATYYCQCSDVGNTYGAAFGGGTEVEIN
notes: Rabbit monoclonal IgG
B16: LA-142-1 (antibody, V domains shown)
VH: B14 VH with Q1A, S2A, I114V
VL: B14 VL with V109E, V110I
notes: Rabbit monoclonal IgG
B17: LA-258-1 (antibody, V domains shown)
VH: QSVKESGGDLVKPEGSLTLTCKASGFSFSNSYYMCWVRQAPGKGLEWIACIYTGSTSGTYYASWVNGRFTISKTPSTTVTLQMTSLTVADTATYFCSRKLTNFNGAYLDLWGPGTLVTISS
VL: ELVLTQTPASVEAAVGGTVTINCQASQSISNLLAWYQQKPGQRPKLLIYRASTLASGVSSRFKGSGSGTEYTLTISGVQCDDAATYYCQQGYTSNNVDNAFGGGTEVEIK
notes: Rabbit monoclonal IgG

Experiments:
[1] = target: T1, human LAIR1 extracellular domain (ECD) protein with 6 HIS tag at the C-terminus (human, UniProt Q6GTX8 22-165); assay: ELISA, LAIR1 ECD coated, mAb titrated, anti-rabbit HRP
T1 construct: Produced recombinantly in HEK293 cells; the whole entry is named here; also called LAIR1 ECD; LAIR1-ECD
T1 chain: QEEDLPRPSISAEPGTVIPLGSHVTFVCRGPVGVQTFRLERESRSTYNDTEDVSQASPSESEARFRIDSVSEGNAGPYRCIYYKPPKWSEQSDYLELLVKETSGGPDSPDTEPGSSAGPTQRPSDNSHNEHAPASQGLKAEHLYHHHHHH
Method: (§1) The inventors then used a concentration titration (0-10 μg/ml) by ELISA to determine the LAIR1 monoclonal antibody (mAbs) binding to human LAIR1 ECD. […] For FIGS. 2-39, X axis indicates the antibody concentrations and Y-axis is binding signals, measured as OD (450 nm). To perform the ELISA assay, LAIR1 ECD recombinant protein was coated on high absorption 96-well plates. Serial diluted (3-fold) LAIR1 mAb was added to the coated/blocked plates and detected using goat anti-rabbit F(ab′)2 conjugated HRP as secondary antibody. All assays were repeated 3 times and the titration curves were fitted using 4-parameter fitting curve using the GraphPad software for EC₅₀ estimation.
(§2) Serial dilutions of the LAIR1 monoclonal antibodies (IgGs or scFvs fragments), starting from […] and 3-fold titration down for 12 steps, were added to the 96-well plate for binding by incubating 45 minutes at 37° C. with a cover on the assay plate. Then the plates were washed with PBS containing Tween 20 (0.05% concentration) for 3 times and PBS one time. […] Detection was conducted by adding HRP substrate, TMB (ThermoFisher) for 10 minutes, and stopped by adding 50 μl/well of 2N H2504. The plates were read for absorbance at 450 nm using a plate reader (SpectraMax M4, Molecular Devices). Data were collected and graphed using a 4-parameter fitting curve with GrapPad Prism 7 software for EC₅₀ calculation.

[2] = target: T1, human LAIR1 extracellular domain (ECD) …; assay: ELISA, LAIR1 ECD coated
Method: as §1, §2

[3] = target: T2, LAIR1 on LAIR1 reporter cells (human, UniProt Q6GTX8 22-165, limits assumed); assay: cell-based or functional assay
T2 chain: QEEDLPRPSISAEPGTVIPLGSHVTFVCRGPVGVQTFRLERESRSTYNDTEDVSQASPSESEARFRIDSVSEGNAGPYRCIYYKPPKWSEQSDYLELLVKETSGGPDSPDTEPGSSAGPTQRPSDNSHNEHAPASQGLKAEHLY

| Binder | EC50 [1] [nM] | EC50 (read off the curve) [2] [ng/mL] | GFP+% of LAIR1 reporter cells, collagen I coated, soluble Ab [3] [%] |
| --- | --- | --- | --- |
| B1 | 0.09 | ~10 | – |
| B2 | 0.1 | ~10 | 1.1 |
| B3 | 0.07 | ~10 | – |
| B4 | 0.05 | ~7 | – |
| B5 | 0.09 | ~10 | – |
| B6 | 0.05 | ~20 | – |
| B7 | 0.02 | ~10 | – |
| B8 | 0.09 | ~10 | – |
| B9 | 0.16 | ~20 | – |
| B10 | 0.1 | ~10 | 6.5 |
| B11 | 0.08 | ~10 | – |
| B12 | 0.08 | ~10 | – |
| B13 | 0.05 | ~10 | – |
| B14 | 0.23 | ~30 | – |
| B15 | 0.28 | ~40 | – |
| B16 | 0.25 | ~40 | – |
| B17 | 4.21 | – | – |
